The results in this text go back to PMC4263437.

For the series, the system named is O=C(Cc1cccs1)N[C@@H]1C(=O)N2C(C(=O)O)=C(/C=C/c3ccc([N+](=O)[O-])cc3[N+](=O)[O-])CS[C@H]12. Put plainly: purified protein. Format: biochemical, Acinetobacter baumannii.

As to “ADC-7 β-lactamase (Acinetobacter-derived cephalosporinase) (Acinetobacter baumannii)”, the Michaelis constant (Km) is 21.2 µM.
